According to US10444224B2, “Method for RNA detection and quantification” (Cornell University, priority 2011, dated 2019):
“Also recorded” adds a separate entry of the source.

What was measured:
[1] = Tolerance of Spinach stem-loop 2 to mutation, assayed by DFHBI fluorescence; assay type: biochemical
Method: Secondary structure prediction was performed using Mfold online software. Mutated and truncated RNAs were created by ordering single stranded DNA templates (Integrated DNA Technologies) with the desired mutations or truncations and PCR amplifying these sequences to create double stranded DNA templates using primers which included a 5′ T7 promoter sequence. PCR products were then purified with PCR purification columns (Qiagen) and used as templates for in vitro T7 transcription reactions (Epicentre).
To determine if stem-loop 2 primarily has a structural role in Spinach, mutations were introduced at the stem-loop 2 positions shown in FIG. 11A to test the tolerance of Spinach to mutations at these positions. This was assayed by DFHBI fluorescence. In these experiments, the minimized Spinach structure (SEQ ID NO: 8) in which stem-loop 2 is predicted to sit adjacent to the large internal loop (FIG. 11A). […] To determine if stem-loop 2 can be swapped with a different stem-loop with similar stability without perturbing Spinach-induced DFHBI fluorescence, the UUCG loop sequence was replaced with GAAA and the 4-base pair stem was replaced with a different but still complementary 4-base pair stem (FIG. 11A, SEQ ID NO: 9). […] However, when mismatched bases were inserted in the stem region to prevent the formation of a duplex, DFHBI fluorescence was lost (FIG. 11B).

[2] = tested on: endogenous SAM levels in living E. coli cells; assay: Live cell imaging of SAM accumulation with the SAM sensor; assay type: cell-based; conditions: 50 μg/ml methionine plus inhibitor (25 μM adenosine periodate or 2.5 μM MT-DADMe-ImmA)
Method: Expression of the SAM aptamer and intracellular imaging was performed as described above for the ADP sensor: BL21-A Star E. coli cells (Invitrogen) were transformed with 40 ng of plasmid DNA expressing the tRNA-sensor chimeras in pET28c under the control of a T7 promoter. Cells were plated, grown overnight and single colonies were picked for inoculation in LB-Kan. At OD600=0.4, 1 mM of IPTG was added to the culture and shaking was continued at 37° C. for more 2 hours. 100 μL of culture was then removed, spun down to pellet the culture, and resuspended in 2 mL of pH 6.0 M9 minimal media. A 200 μl aliquot of resuspended culture was then plated on PLL-coated 24-well glass-bottom dishes (MatTek) and incubated for 45 minutes at 37° C. Adherent cells were washed twice and then incubated with 200 μM DFHBI in pH 6.0 M9 minimal media for 2 hours at 37° C. Cells were then treated with methionine alone or methionine with inhibitors by adding 2 μl of a 100× stock of the compound to a final concentration of 50 μg/ml for L-methionine, 25 μM for adenosine periodate, and 2.5 μM for MT-DADMe-ImmA. Live fluorescence images were taken with a CoolSnap HQ2 CCD camera through a 60× oil objective mounted on a Nikon TE2000 microscope and analyzed with the NIS-Elements software. The filter set used was a sputter coated filter cube with excitation filter 470/40, dichroic mirror 495 (long pass) and emission filter 525/50 (Chroma Technology).
Cells transformed with SAM sensors were grown overnight in LB-Kan. Cultures were then diluted to OD600=0.1 in 200 mL LB-Kan and grown to OD600=0.4. Cells were then induced for 2 hours with 1 mM IPTG at 37° C. with constant shaking. The entire culture was centrifuged for 5 min at 1,000×g, pellets were resuspended and washed once with M9 media and then resuspended in […] of M9 media containing 200 μM DFHBI and divided into two samples. Methionine (50 μg/ml) or vehicle was then added to either sample and cultures were incubated between 32-37° C. 25 ml aliquots were removed from methionine- and vehicle-treated sample at each time point, centrifuged for 5 min at 1,000×g, and flash frozen in liquid nitrogen. Cells were thawed on ice and lysed by resuspending the pellet in 300 μl of cold 4% perchloric acid. Insoluble material was then pelleted by spinning at 1,000×g for 5 min and the supernatant was transferred to a dialysis spin column with a 10,000 molecular weight cut off (Amicon) and spun at 10,000×g for 10 min at 4° C. A portion of the flow through (50 μl) was then injected on a Zorbax C8 column (Agilent) on an Agilent 1100 HPLC. Samples were loaded and eluted for 15 min with an aqueous buffer containing 3.6% acetonitrile, 40 mM ammonium phosphate, and 5 mM sodium 1-heptanesulfonate which was brought to pH 5.0 with hydrochloric acid. After each sample was eluted, the column was washed with a gradient of 3.6-25% acetonitrile for 30 min prior to the next samples being injected. SAM standards were used to calibrate SAM levels measured using this assay.
Population analysis was carried out using NIS-Elements software. Individual cells in a captured field were manually traced as Region of Interests (ROIs) and tracked through the different time points of image capture. Fluorescence intensity was then calculated by dividing the total fluorescence by the area for each ROI, which gives the mean intensity per unit area. Fold increase in fluorescence over time is calculated as the ratio of mean intensity at a desired time point and at time zero. Values in fold increase in fluorescence over time are plotted as frequency distributions or further used in statistical analyses.

[3] = Relative fluorescence of Spinach derivatives compared to Spinach; assay type: biochemical; conditions: same concentration of DFHBI in all samples
From the text: Further modifications to Spinach were made in the same manner as described in Example 3, supra. These included modifications to the central loop, the stem formed between 5′ and 3′ ends, as well as stem-loops 1, 2, and 3. FIG. 17 illustrates the RNA sequences and secondary structures of Spinach (SEQ ID NO: 10), and five derivatives thereof, which are designated Spinach-2 (SEQ ID NO: 12), Spinach-4 (SEQ ID NO: 13), Spinach-6 (SEQ ID NO: 14), Spinach-7 (SEQ ID NO: 15), and Spinach-13 (SEQ ID NO: 11). RNA structure is shown as predicted by Mfold web-based software (Zuker, “Mfold Web Server for Nucleic Acid Folding and Hybridization Prediction,” Nucl. Acids Res. 31(13): 3406-3415 (2003), which is hereby incorporated by reference in its entirety). Substitutions present in the derivatives, relative to Spinach, are shown with a box formed around the base.
FIG. 18 is a graph illustrating the relative fluorescence of the Spinach derivatives compared to Spinach. In all samples shown, the same concentration of DFHBI, the Spinach-binding fluorophore, was included. […] In contrast, modifications to the 5′ and 3′ stem formation, the central loop, and stem-loop 2 were either tolerated or led to much improved fluorescence.

[4] = Emission and excitation of aptamer-DFAME complexes; assay type: physicochemical; conditions: aptamer with DFAME
[5] = Emission and excitation of aptamer-MFHO complexes; assay type: physicochemical; conditions: aptamer with MFHO
[6] = Spinach-based RNA sensor fluorescence in response to GTP; assay type: biochemical
Method: Dose-response curves for each sensor in response to the target metabolite were determined by measuring the increase in fluorescence as a function of increasing target concentration in the presence of a fixed concentration of RNA sensor (10-50 nM) and a fixed concentration of fluorophore (10 μM). Curves were determined using a nonlinear regression analysis in Prism software and matched by least squares fitting to a standard dose-response model for 1:1 complexation.
The optimal sensors were chosen based on their low fluorescence in the absence of metabolite and the relative increase in fluorescence upon binding to the metabolite.

[7] = 0.1 μM RNA, 10 μM DFHBI, 1 mM competing molecule

SEQ ID NO: 16: mismatch stem-loop structure introduced into Spinach; three mismatched nucleotides prevent duplex formation (AUGCUUCGGACG; listed as RNA, chemistry not given here)
DFHBI fluorescence of stem-loop 2 variant relative to Spinach / original stem-loop 2 [1]: reduces fluorescence intensity to baseline

CSC[C@H]1CN(Cc2c[nH]c3c(N)ncnc23)C[C@@H]1O [MT-DADMe-ImmA, MT-DADMe-Immucillin-A]
effect on average SAM levels / accumulation versus vehicle [2]: large decrease in the average accumulation of SAM | effect on inter-cell variability in SAM levels versus vehicle [2]: retained considerable variability in total SAM levels | effect on average SAM levels / accumulation versus vehicle ([2]; listed as Mt-DADMe-ImmA): substantial reduction in average SAM accumulation levels; also recorded: much greater reduction in average SAM accumulation levels | effect on inter-cell variability in SAM levels versus vehicle ([2]; listed as Mt-DADMe-ImmA): higher variability in SAM levels; also recorded: increased the variability in SAM levels

B1: Spinach-13: derivative of Spinach (nucleic acid)
chain: GACGCGACCUAUGAAAUGGUGAAGGGACGGGUCCCAGCGGCUGCUUCGGCAGCCGCUGUUGAGUAGAGUGUGAGCUCCGUAACUGGUCGCGUC
modifications: listed as RNA, chemistry not given here
relative fluorescence compared to Spinach [3]: greatly reduced fluorescence

B2: Spinach-4: derivative of Spinach (nucleic acid)
chain: GACGCGACCGAAUGAAAUGGUGAAGGACGGGUCCAGCUGCGGCUGCUUCGGCAGCCGCAGCUUGUUGAGUAGAGUGUGAGCUCCGUAACUGGUCGCGUC
modifications: listed as RNA, chemistry not given here
relative fluorescence compared to Spinach [3]: enhanced fluorescence

B3: SEQ ID NO: 58: RNA aptamer listed for fluorophore DFAME (nucleic acid)
chain: GGGAGACGCAACUGAAUGAAGCCUCCGUGCGACAUCAUGCGCGCGACUGCUUCGGCAGAGGUGGGUGGUGUGGAGGAGUAUCUGUCCGUAACUAGUCGCGUCAC
modifications: listed as RNA, further chemistry not given here
Em [4]: Em = 610 nm | Ex [4]: Ex = 510 nm

B4: Spinach-6: derivative of Spinach (nucleic acid)
chain: GACGCGACCGAAUGAAAUGGUGAAGGACGGGUCCAGGUGUGGCUGCUUCGGCAGUGCAGCUUGUUGCGUCGAGUGUGAGCUCGACGUAACUGGUCGCGUC
modifications: listed as RNA, chemistry not given here
relative fluorescence compared to Spinach [3]: greatly reduced fluorescence

B5: Spinach-2: derivative of Spinach (nucleic acid)
chain: GACGCGACCGAAUGAAAUGGUGAAGGACGGGUCCAGGUGUGGCUGCUUCGGCAGUGCAGCUUGUUGAGUAGAGUGUGAGCUCCGUAACUGGUCGCGUC
modifications: listed as RNA, chemistry not given here
relative fluorescence compared to Spinach [3]: comparable fluorescence

B6: SEQ ID NO: 8: derivative (minimized) Spinach sequence containing a shortened stem-loop 2 (nucleic acid)
chain: GACGCGACUGAAUGAAAUGGUGAAGGACGGGUCCAGCUGCUUCGGCAGCUUGUUGAGUAGAGUGUGAGCUCCGUAACUAGUCGCGUC
modifications: listed as RNA, chemistry not given here
DFHBI fluorescence of stem-loop 2 variant relative to Spinach / original stem-loop 2 [1]: essentially identical fluorescence

B7: Spinach-7: derivative of Spinach (nucleic acid)
chain: GACGCGACCGAAUGAAAUGGUGAAGGACGGGUCCAGCCGGCUGCUUCGGCAGCCGGCUUGUUGAGUAGAGUGUGAGCUCCGUAACUGGUCGCGUC
modifications: listed as RNA, chemistry not given here
relative fluorescence compared to Spinach [3]: enhanced fluorescence

B8: SEQ ID NO: 55: RNA aptamer listed for fluorophore MFHO (nucleic acid)
chain: GGGAGACGCAACUGAAUGAAGCGAGGAAGGAGGUCUGAGGAGGUCACUGCUUCGACAGUGGGGCGUUUUCCCUGGGGGUGUUGAUCCGUAACUAGUCGCGUCAC
modifications: listed as RNA, chemistry not given here
Em [5]: Em = 430 nm | Ex [5]: Ex = 580 nm

B9: GTP sensor: Spinach-based turn-on RNA sensor for GTP (nucleic acid)
chain: GACGCGACUGAAUGAAAUGGUGAAGGACGGGUCCAGCAGAAGAGCACGUAUACGCAAGCUUGUUGAGUAGAGUGUGAGCUCCGUAACUAGUCGCGUC
modifications: listed as RNA, chemistry not given here
increase in fluorescence in the presence of GTP ([6]; 0.1 μM RNA, 10 μM DFHBI, 1 mM GTP, versus no GTP): 15 fold | molecular discrimination: ATP [6, 7]: Only baseline fluorescence | molecular discrimination: GMP [6, 7]: exhibits fluorescence, although to a lesser extent; also recorded: moderate preference for GTP over GMP | molecular discrimination: cGMP and guanosine [6, 7]: minimal fluorescence; also recorded: tenfold less fluorescence | EC50 ([6]; predicted by curve fitting, read-out: half-maximal fluorescence (EC50), GTP): 7.7 mM

B10: SEQ ID NO: 57: RNA aptamer listed for fluorophore DFAME (nucleic acid)
chain: GGGAGACGCAACUGAAUGAAAGACCUGACGAGGGUGAAGCGGUUGUCUGCUUCGGCAGCAUUGAAAGGGUGGGGUGUAGGAUGGUCCGUAACUAGUCGCGUCAC
modifications: listed as RNA, further chemistry not given here
Em [4]: Em = 570 nm | Ex [4]: Ex = 620 nm

B11: SEQ ID NO: 56: RNA aptamer listed for fluorophore MFHO (nucleic acid)
chain: GGGAGACGCAACUGAAUGAAUGAGUAUGAUGCACGGUUAAAAUCCACUGCUUCGGCAGGAGUUGCGUUAGGAGGGUCGGGAGUCUCCGUAACUAGUCGCGUCAC
modifications: listed as RNA, chemistry not given here
Em [5]: Em = 570 nm | Ex [5]: Ex = 550 nm
